Results on three proteins are retold here after paper PMC11031135, “Chemo-enzymatic synthesis of tetrasaccharide linker peptides to study the divergent step in glycosaminoglycan biosynthesis” (Glycobiology, 2024).

The data set concerns the molecule itself. As to the kind of experiment: mass photometry; Refeyn OneMP; final protein concentration between 50 nM and 125 nM; XylT1 and SUMO-β3GalT6 in Tris buffer A (50 mM Tris pH 7.4, 250 mM NaCl) with 5% glycerol, β4GalT7 in S200 buffer (25 mM MES pH 6.5, 200 mM NaCl, 5% glycerol), GlcAT-1 in HEPES buffer; duplicates.

B1: human β4GalT7, residues 81-327 (enzyme, UniProt Q9UBV7 81-327, looked up)
chain: PEHWEEDASWGPHRLAVLVPFRERFEELLVFVPHMRRFLSRKKIRHHIYVLNQVDHFRFNRAALINVGFLESSNSTDYIAMHDVDLLPLNEELDYGFPEAGPFHVASPELHPLYHYKTYVGGILLLSKQHYRLCNGMSNRFWGWGREDDEFYRRIKGAGLQLFRPSGITTGYKTFRHLHDPAWRKRDQKRIAAQKQEQFKVDREGGLNTVKYHVASRTALSVGGAPCTVLNIMLDCDKTATPWCTFS
notes: human beta-1,4-galactosyltransferase 7, UniProt Q9UBV7, residues 81-327, without the N-terminal transmembrane anchoring helix; Made from the pETM30 vector; The 6xHis-GST tag was removed by TEV protease; The printed monomer mass is 29 kDa; also called β4GalT7_81-327; source: E. coli Rosetta(DE3)pLysS, purified (IMAC, TEV cleavage, second IMAC, Superdex 200); not shown: 6xHistidine, N-terminal, …
As a reminder, the stoichiometry N is the number of molecules, sites or subunits per partner or assembly. Regarding B1, the “stoichiometry N” value worked out at 2.

B2: SUMO-β3GalT6 fusion protein (human β3GalT6 residues 53-329) (enzyme, UniProt Q96L58 53-329, looked up)
chain: ARAAAFLAVLVASAPRAAERRSVIRSTWLARRGAPGDVWARFAVGTAGLGAEERRALEREQARHGDLLLLPALRDAYENLTAKVLAMLAWLDEHVAFEFVLKADDDSFARLDALLAELRAREPARRRRLYWGFFSGRGRVKPGGRWREAAWQLCDYYLPYALGGGYVLSADLVHYLRLSRDYLRAWHSEDVSLGAWLAPVDVQREHDPRFDTEYRSRGCSNQYLVTHKQSLEDMLEKHATLAREGRLCKREVQLRLSYVYDWSAPPSQCCQRREGIP
notes: human beta-1,3-galactosyltransferase 6, UniProt Q96L58, residues 53-329, without the N-terminal transmembrane anchoring helix; The fusion was not cleaved; The printed monomer mass is 45 kDa; also called β3GalT6_53-329; source: FreeStyle 293-F cells, transfected, culture supernatant, purified (one-step IMAC, dialysis); not shown: SUMO, N-terminal, kept; 6xHistidine, N-terminal, kept
For the protein B2, the “stoichiometry N” value worked out at 2.

B3: human GlcAT-1, residues 76-335 (enzyme, UniProt O94766 76-335, looked up)
chain: TIYVVTPTYARLVQKAELVRLSQTLSLVPRLHWLLVEDAEGPTPLVSGLLAASGLLFTHLVVLTPKAQRLREGEPGWVHPRGVEQRNKALDWLRGRGGAVGGEKDPPPPGTQGVVYFADDDNTYSRELFEEMRWTRGVSVWPVGLVGGLRFEGPQVQDGRVVGFHTAWEPSRPFPVDMAGFAVALPLLLDKPNAQFDSTAPRGHLESSLLSHLVDPKDLEPRAANCTRVLVWHTRTEKPKMKQEEQLQRQGRGSDPAIEV
notes: human glucuronyltransferase GlcAT-1, UniProt O94766, residues 76-335, without the N-terminal transmembrane anchoring helix; Made from the pETM30 vector; The 6xHis-GST tag was removed by TEV protease; The printed monomer mass is 29 kDa; also called GlcAT-1_76-335; source: E. coli BL21(DE3)pLysS, purified (IMAC, TEV cleavage, flow-through of the second IMAC); not shown: 6xHistidine, N-terminal, …
Regarding B3, the “stoichiometry N” value came to 2.
